According to patent US20170247475A1 (Boehringer Ingelheim, published 2017):
Changes are numbered by the printed parent chain.

T1: recombinant human VEGF121 (human, UniProt P15692-9 27-147)
T1 construct: also called rhVEGF121; hVEGF121
T1 sequence (looked up): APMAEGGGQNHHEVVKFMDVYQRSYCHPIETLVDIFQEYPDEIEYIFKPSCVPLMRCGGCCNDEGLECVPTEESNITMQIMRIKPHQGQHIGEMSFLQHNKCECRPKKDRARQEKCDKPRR

T2: recombinant mouse VEGF164 (mouse, UniProt Q00731-2 27-190)
T2 construct: biotinylated in the mVEGFR2 AlphaScreen; also called rmVEGF164; mVEGF164
T2 sequence (looked up): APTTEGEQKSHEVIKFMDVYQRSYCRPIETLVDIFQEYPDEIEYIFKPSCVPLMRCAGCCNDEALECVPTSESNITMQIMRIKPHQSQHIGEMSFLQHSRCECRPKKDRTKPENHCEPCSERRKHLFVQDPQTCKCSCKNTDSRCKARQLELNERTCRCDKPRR

B1: VEGFBII23B04 (VHH)
VHH: EVQLVESGGGLVQTGDSLRLSCEVSGRTFSSYSMGWFRQAQGKEREFVVAISKGGYKYDSVSLEGRFTISKDNAKNTVYLQINSLKPEDTAVYYCASSRAYGSSRLRLADTYEYWGQGTQVTVSS
notes: also called VEGFBII23B4; VEGFBII23B04 (wt)
B2: VEGFBII038 (VHH)
VHH: B1 VHH with E1D, T14P, D16G, E23A, V24A, Q41P, S60A, K71R, K86R, Q120L
notes: also called VEGFBII0038; VEGFBII00038

How the values were obtained:
[1] = molecular target: T3, recombinant human VEGF165 (human, UniProt P15692-4 27-191); experiment: binding ELISA, coated rhVEGF165
T3 construct: also called hVEGF165; rhVEGF165

[2] = molecular target: T1, recombinant human VEGF121; experiment: binding ELISA, coated rhVEGF121
Procedure: Binding to recombinant human VEGF121 is assessed via a solid phase binding ELISA. Briefly, recombinant human VEGF121 (R&D Systems, Minneapolis, Minn., USA) is coated overnight at 4° C. at 1 μg/mL in a 96-well MaxiSorp plate (Nunc, Wiesbaden, Germany). Wells are blocked with a casein solution (1% in PBS).

[3] = molecular target: T2, recombinant mouse VEGF164; experiment: binding ELISA, coated rmVEGF164
Procedure: Cross-reactivity to mouse VEGF164 is determined using a binding ELISA. […] Wells are blocked with a casein solution (1% in PBS). […] A mouse VEGF164 reactive mAb is included as positive control.

[4] = molecular target: T3, recombinant human VEGF165; experiment: hVEGF165/hVEGFR1-Fc competition ELISA
Target sequence in this assay (P15692 other isoform, or with tags, fused parts or gaps limits assumed): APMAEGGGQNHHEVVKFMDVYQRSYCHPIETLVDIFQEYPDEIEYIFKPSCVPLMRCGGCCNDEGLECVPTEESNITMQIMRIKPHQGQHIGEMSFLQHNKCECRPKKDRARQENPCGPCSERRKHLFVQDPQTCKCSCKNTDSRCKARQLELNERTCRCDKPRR

[5] = molecular target: T3, recombinant human VEGF165; experiment: hVEGF165/hVEGFR2-Fc competition AlphaScreen
Procedure: Finally, streptavidin donor beads (20 μg/ml) are added and after 1 hour of incubation in the dark, fluorescence is measured on the Envision microplate reader.
Target sequence in this assay (P15692 other isoform, or with tags, fused parts or gaps limits assumed): as above

[6] = molecular target: T3, recombinant human VEGF165; experiment: Biacore, periplasmic extract on hVEGF165 chip
Target sequence in this assay (P15692 other isoform, or with tags, fused parts or gaps limits assumed): as above

[7] = molecular target: T3, recombinant human VEGF165; experiment: kd1; SPR Biacore T100, hVEGF165 on chip, Two State Reaction model
Procedure: Samples are injected for 2 min and allowed to dissociate up to 20 min at a flow rate of 45 μI/min. In between sample injections, the chip surface is regenerated with 100 mM HCl. HBS-EP+(Hepes buffer pH7.4+EDTA) is used as running buffer. Binding curves are fitted using a Two State Reaction model by Biacore T100 Evaluation Software v2.0.1.
^{(a)}Heterogeneous binding curve resulting in no 1:1 fit, curves are fitted using a Two State Reaction model by Biacore T100 Evaluation Software v2.0.1

[8] = molecular target: T3, recombinant human VEGF165; experiment: competition AlphaScreen, blocking of hVEGF165 binding to hVEGFR2-Fc
Target sequence in this assay (P15692 other isoform, or with tags, fused parts or gaps limits assumed): as above

[9] = molecular target: T3, recombinant human VEGF165; experiment: AlphaScreen competition, 0.05 nM hVEGF165 and 0.05 nM hVEGFR1-Fc; blocked: hVEGFR1-Fc
Target sequence in this assay (P15692 other isoform, or with tags, fused parts or gaps limits assumed): as above

[10] = molecular target: T3, recombinant human VEGF165; experiment: as above; remark: listed apart in the source
Target sequence in this assay (P15692 other isoform, or with tags, fused parts or gaps limits assumed): as above

[11] = molecular target: T3, recombinant human VEGF165; experiment: as above; remark: listed apart in the source
[12] = molecular target: T3, recombinant human VEGF165; experiment: as above; remark: listed apart in the source
[13] = molecular target: T3, recombinant human VEGF165; experiment: as above; remark: listed apart in the source
[14] = molecular target: T3, recombinant human VEGF165; experiment: as above; remark: listed apart in the source
[15] = molecular target: T3, recombinant human VEGF165; experiment: AlphaScreen competition, 0.05 nM hVEGF165 and 0.05 nM hVEGFR2-Fc; blocked: hVEGFR2-Fc
[16] = molecular target: T3, recombinant human VEGF165; experiment: AlphaScreen competition, 0.05 nM hVEGF165 and 0.05 nM hVEGFR1-Fc; blocked: hVEGFR1-Fc; remark: listed apart in the source

| Binder | EC50 [1] | EC50 [2] | binding result [3] | % inhibition [4] | IC50 [4] | % inhibition [5] | IC50 [5] | Binding level (RU) [6] | koff [7] | IC50 (read off the curve) [8] | IC50 (read off the curve) [9] | IC50 (read off the curve) [10] | IC50 (read off the curve) [11] | IC50 (read off the curve) [12] | IC50 (read off the curve) [13] | IC50 (read off the curve) [14] | IC50 (read off the curve) [15] | IC50 (read off the curve) [16] |
| --- | --- | --- | --- | --- | --- | --- | --- | --- | --- | --- | --- | --- | --- | --- | --- | --- | --- | --- |
| B1 | 0.297 nM | 0.51 nM | no binding (tested: 500 nM-32 pM) | 64% | 0.5 nM | 100% | 0.16 nM | 768 RU | 0.0086 s⁻¹ | – | – | – | – | – | – | – | – | – |
| B2 | – | – | – | – | – | – | – | – | – | ~0.4 nM | ~0.5 nM | ~0.8 nM | ~0.5 nM | ~0.5 nM | ~0.5 nM | ~0.8 nM | ~0.2 nM | ~0.3 nM |
